In the nanobody polyreactivity screen of Harvey et al. (2022):

Test: yeast display, Sf9 membrane polyspecificity reagent, FACS + sequencing; frameworks hold sequencing errors
In short: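 A synthetic nanobody library was expressed on Saccharomyces cerevisiae BJ5465 by galactose induction for 36–48 hours. The library was stained for 1 hour at 4 °C with 10% biotinylated, detergent-solubilized Sf9 membrane reagent and enriched with streptavidin microbeads before FACS. Low and high (top ~1%) gates were set on anti-HA fluorescence for expression and streptavidin fluorescence for reagent binding, and each polyreactivity label reflects the gate of origin.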

Sequence | polyreactivity (PSR sort gate)
QVQLVESGGGLVQAGGSLRLSCAASGITFVSYAMGWYRQAPGKERELVAAISSWSGGTTYYADSVKGRFTISRDNAKNTVYLQMNSLKPEDTAVYYCAAVSFGSYRLGYWGQGTQVTVSS | high polyreactivity
HVQLVESGGGLVQAGGSLRLSCAASGSIFGLYAMGWSRQAPGKEWELVAAITRGDSTNYADSVKGRFTISRDNAKNTVYLQMNSLKPEDTAVYYCNAVYAGWRGGNYWGQGTQVTVSS | low polyreactivity
QVQLVESGGGLVQAGGSLRLSCAASGRIFGTYAMGWYRQAPGKERELVAVITRGGGTKYADSVKGRFTISRDNAKNTVYLQMNSLKPEDTAVYYCAARGRYYGYNYWGQGTQVTVSS | high polyreactivity
QVQLVESGGGLVQAGGSLRLSCAASGGIYYRYAKGWYRQAPGKERDLVAVISRSGSTYYADSVKGRFTMSRDNAQNTVYLQMNSLKPEDTAVYYCAAYSRCRYGLVPYDYWGQGTQVTVSS | high polyreactivity
QVQLVESGGGLVQAGGSLRLSCAASGRTLGTNAMGWYRQAPGKERELVATISRGGITNYADSVKGRFTISRDNPKNTVYLQMNSLKPEDTAVYYCNVRYQHVYRGYGPNKYNYWGQGTQVTVSS | high polyreactivity
QVQLVESGGGLVQAGGSLRLSCAASGRISQIYAMGWYRQAPGKERELVARITSTDSTYYADSVKGRFTISRDNAKNTVYLQMNSLKPEDTAVYYCAASWWSPYDYWGQGTQVTVSS | low polyreactivity
QVQLVESGGGLVQAGGSLRLSCAASGSTFNPYAMGWYRQAPGKERELVAAINSRGGSTYYADSVKGRFTISRDNAKNTVYLQMNSLKPEDSAVYYCAARTRRRTSAYEYWGQGTQVTVSS | high polyreactivity
QVQLVESGGGLVQAGGSLPLSCAASGNTFYNYAMGWYRQAPGKERELVAAISLSGGSTYYADSVKGRFTISRDNAKNTVYLQMNSLKPEDTAVYYCAADIFYYSSSYGYWGQGTQVTVSS | low polyreactivity
QVQLVESGGGLVQAGGSLRLSCAASGSNMGDNGMGWYRKAPGKERELVAAITNGGSTTYADSVKGRFTISRDNAKNTVYLQMNSLKPEDTAVYYCAADQQDRDQYSDWTEYDYWGQGTQVTVSS | low polyreactivity
QVQLVESGGGLVQAGGSLRLICAASGSTFGPNAMGWYRQAPGKEREFVASISWRGGRTYYADSVKGRFTISRDNAKNSVYLQMYCLKPEDTAVSYCAAVSYPAVYGFDYWGQGTQVTVSS | high polyreactivity
QVQLVESGGGLLQAGGSLRLSCAATGITYDYYDMGWYRQAPGKERELVAAIRWSGTSKYYADSVKGRFTISRDNANNTVYIQMNSLKTEDSAVYYCAALAVGNDYRRYGYWGQGTQVTVSS | high polyreactivity
QVQLVESGGGLVQAGGSLRLSCAASGSILYVYAMGWYRQAPGKERELVAAISFSGGSTYYADSVKGRFTISRDNAKNTVYLQMNSLKPEDTAVYYCAAALGPGAWYGDKYEYEYWGQGTQVTVSS | low polyreactivity
QVQLVESGGGLVQAGGSLRLSCAASGRTIRWNAMGGSRPAPGKERELVAAITSRGGSTYYADSVKGRFTISRDNAKNTVYLQMNSLKPEDTAVYYCAAGGRYGDDYWGQGTQVTVSS | high polyreactivity
QVQLVESGGGLVQAGGSLRLSCAASGFTFQYNAMGWYRQAPGKERELVAAITWTGTSTYAYSVKGRFTISRDNAKNTVYLQLNSVKPDDTGVYYCAARYYAPRWFRYDYWGQGTQVTVSS | low polyreactivity
QVQLVESGGGLVQAGGSLRLSCAASGSIFPYYAMGWSRQAPGKERELVASINQSDGTTYYADSVKGRFTISRDNAKNTVYLQMNSLKPEDTAVYYCAAAYFYWRVDKYYYWGQGTQVTVSS | low polyreactivity
QVQLLESGGGLVQAGGSLRLSCAASGSTFQAYAMGWYRQAPGKERELVAAISVSDGITYYADSVKGRFTISRDNAKNTVYLQMNSLKPEDTAVYYCAAEISLSRSDRIESYDYWGQGTQVTVSS | low polyreactivity
QVQLVESGGGLVQAGGSLRLRCAASGSTLYGNAMGWYRQAPGKERDLVAVISRGGTTSYADSVKGRFTISRDNAKNTVYLQMKSLKPEDTAVYYCAVDVASLSTWPPAGRLVDYWGQGTQVTVSS | low polyreactivity
QVQLVESGGGLVQAGGSLRLSCADSGRTFYPYVMGWYRQAPGKERELVADISWSGGRTYYADSVKGRFTISRDNAKNTVYLQMYSLKPEDTAVYYCCAGYRRRYNYWGQGTQVTVSS | high polyreactivity
QVQLVESGGRLVQAGGSLRLSCAASGRIFNHYAMGWYRQAPGKERELVAAIDRSGGSTYYADSVKGRFTISRDNAKNTVYFQMNSLKPEDTAVYYCNARRIIAKYGYWGQGTQVTVSS | high polyreactivity
QVQLVESGGGLVQAGGSLRLSCAASGFTLIYYAMGWYRQAPGKERELVAGISRGVSTSYADSVMGRFTISRDNAKNTVYLQMNSLKPEDTAVYYCAAEGSPVDQSSIYDYWGQGTQVTVSS | low polyreactivity
QVQLVESGGGLVQAGGRHRLSCAASGRTFWGYGMGWYRQPPGKDRELVATISSGGSTYYEDSVKGRFTISRDNAMNTVYLQMNSLKPEDTAVYYCAARPPRSYWRYQSDYWGLGTQVTVSS | high polyreactivity
QVQLVESGGGLVQAGGSLRLSCAASGLTFFRNAMGWYRQAPGKEREFVAGITSTDGSTYYADSVKGRFTISRDNAKNTVYLQMNSLKPEDTAVYYCAAAYRVRGRTYDSWGQGTQVTVSS | high polyreactivity

Sequence | polyreactivity (PSR sort gate)
QVQLVESGGGLVQAGGSLRLSCAASGSTFPYNAMGWYRQAPGKERELVAAISWSGGRTYYADSVKGRFTISRDNAKNTVYLQMNSLKPEDTAVDYCAKAVKQYGFYYWGQGTQVTVSS | high polyreactivity
QVQLVESGGGLVQAGGSLRLSCAASGGTFVGYTMGWYRQAPGKERELVAGIRTRSGSTSYADSVKGRFTISRDNAKNTVYLQMNSLKPEDTAVYYCAARPYGRYPYPEYYYWGQGTQVTVSS | high polyreactivity
QVQLVESGGGLVQAGGSLRLSCAASGLTFRVYDMGWYRQAPGKERELVAAITGGGRTYYADSVKGRFTISRDNAKNTVYLQMNSLKPEDTAVYYCAARTRVTKREYDYWGQGTQVTVSS | high polyreactivity
QVQLVESGGGLVQAGGSLRLSCAASGRIFKYYGMGWYRQAPGKESELVAAITRGDSTNYADSVKGRFTISRDNAKNTVYLQMNSLKPEDTAVYYCNVGTRRGYDYWGQGTQVTVSS | high polyreactivity
QVQLVESGGGLVQAGGSLRLSCAASGRIFRYNAMGWYRQAPGKERELVATISWSGGRTYYADSVKGRFTISRDNAKNTVYLQMNSLKPEDNAVYYCAAYSYRGFGEYDYWGQGTQVTVSS | high polyreactivity
QVQLVESGGGLVQAGGSLRLSCAASGNIFSGNAMGWYRQAPGKERELVAAISWSGGSTYYADSVKGRFTISRDNAKNTVYLQMNSLKPEDTAVYYCNKDLYADGQYNYDYWGQGTQVTVSS | low polyreactivity
QVQLVESGGGLVQAGGSLRLSCAASGSIYNRYAMGSYRQAPRQERELVAAITQSTDSTYYADSVKGRITISRDNAMITVYLQMNSLKPEDTAVYYCAAYLVYYRPYAYGYWGQGTQVTVSS | low polyreactivity
QVQLVESGGGLVQAGGSLRLSCAASGITFGYYAMGWYRQAPGKERELVATITDGGGTKYADSVKGRFTISRDNAKNTVYLQMNSLKPEDTAVYYCAAGLRHVYATEYDYWGQGTQVTVSS | low polyreactivity
QVQLVESGGGLVQAGGILRLSCAATGTTFSYYPMGWYRQAPGKERELVAAITNGGSTYYADSVKGRFTISRDNAKNTVYLQMNSLKPEDTAVYYCAADVSYWPYARYQRYPRYDYWGQGTQVTVSS | low polyreactivity
QVQLVESGGGLVQAGGSLRLSCAASGRIFPWNAMGWYRQAPGKERELVAAISFSAGRTYYADSVKGRFTISRDNAKTTVYLQMTSLKPEDTAVYFCTKASYWGSGFDYWGQGTQVTVSS | low polyreactivity
QVQLVESGGGLVQAGGSLRLSCAASGRIFGGYGMGWYRPAPGKQRELVAAISSGGNTKYADSVKGRFTISRDNAKNTVYLQMNSLKPEDTAVYHCAAKFAQPDYRYDYWGQGTQVTVSS | high polyreactivity
QVQLVESGGGLVQAGGSLRLSCAASGSIFYSYAMGWSRQAPGKERELFAAISYSTTSTYYADSVKGRFTISCDNAKNTVYLQMKSLKPEDTAVYYCAVDYIIWYDGYLLYYWGQGTQVTVSS | low polyreactivity
QVQLVETGGGLVQAGGSLRLSCAASGRTLTCYAMGWYRQAPGKERELVAAISWSGGSTYYADSVKGRFTISRDNAKNTVYLQMYSLIPEDTAVYYCAADRVRSYFSRYYSTPLDYYWGQGTQVTVSS | high polyreactivity
QVQLVESGGGLVQAGGSLRLSCAASGRTFFRNAMGWYRQAPGKERELVAGISRSGGSTYYADSVKGRFTISRDNAKNTVYLQMNSLKPEDTAVYYCAASFRFYRTGYYYWGQGTQVTVSS | high polyreactivity
QVQLVESGGGLVQAGGSLRLICAASGRIFWGNAMGWYRQAPGKERELVAAINSIGGTTYYADSVKGRFTISRDNAKNTVYLQMNSLKPEDTAVYYCAAQTFVYRKELLSRYEYWGQGTQVTVSS | high polyreactivity
QVQLVESGGGLVQAGGSLRLSCAASGSIFNYYGMGWYRQAPGKERELVAAISYSGGSTYYADSVKGRFTISRDNAKNTVYLQMNSLKPEDTAVYYCAKRYYPVIRYHSTYDSWGQGTQVTVSS | low polyreactivity
QVQLVESGGGLVQAGGSLRLSCAATGFIFPINAMGWYRQAPGKERELVAAITGGGSTSYADSVKGRFTISRDNAKNTVYLQMNSLKPEDTAVYYCATDRLTYTKYGYWGQGTQVTVSS | low polyreactivity
QVQLVESGGGLVKAGGSLRLSCAASGSIFPYNAMGWYRQAPGKERELVATISSGGSTNYADSVKGRFTISRDNAKNTVYLQMNSMKPEDTAVYYCAADVSVFYYAPNYWGDIEYGYWGQGTQVTVSS | low polyreactivity
QVQLVESGGGLVQAGGSLRLSCAASGSIFYYNAMGWYRQAPGKERELVAAITSSGGSTYADSVKGRFSISRDNAKNTVYLQMKSLKPEDTAVYYCNADGGYSYESTDHYGYEYWGQGTQVTVSS | low polyreactivity
QVQLVESGGGLVQAGGSLRLSCAASGYTFPRNAMGWYRQEPGKERELVAAISASGGRTSYADSVKVRFTISRDNAKNTVYLQMNSLKPEDTAVYYCAAPFLRRIGYPRSYDYWGQGTQVTVSS | high polyreactivity
QVQLVESGGGLVQAGGSLRLSCAASGFIFPTYAMGWYRQATGKERELVAAISYRGGITSYADSVKGRFTISRDNAKNTVYLQMNSLKPEDSAVYYCAARGAWGYEYWGQGTQVTVSS | low polyreactivity
